Source: paper PMC7876468 (Frontiers in Medicine, 2021)

Target: T1, CHIKV VLPs (Chikungunya virus, VLP strain not …, UniProt Q5XXP3)
T1 construct: also called CHIKV virus-like particles
Assay: MagPlex direct binding assay
Details: both partners purified

T1 sequence (Q5XXP3 whole entry, looked up): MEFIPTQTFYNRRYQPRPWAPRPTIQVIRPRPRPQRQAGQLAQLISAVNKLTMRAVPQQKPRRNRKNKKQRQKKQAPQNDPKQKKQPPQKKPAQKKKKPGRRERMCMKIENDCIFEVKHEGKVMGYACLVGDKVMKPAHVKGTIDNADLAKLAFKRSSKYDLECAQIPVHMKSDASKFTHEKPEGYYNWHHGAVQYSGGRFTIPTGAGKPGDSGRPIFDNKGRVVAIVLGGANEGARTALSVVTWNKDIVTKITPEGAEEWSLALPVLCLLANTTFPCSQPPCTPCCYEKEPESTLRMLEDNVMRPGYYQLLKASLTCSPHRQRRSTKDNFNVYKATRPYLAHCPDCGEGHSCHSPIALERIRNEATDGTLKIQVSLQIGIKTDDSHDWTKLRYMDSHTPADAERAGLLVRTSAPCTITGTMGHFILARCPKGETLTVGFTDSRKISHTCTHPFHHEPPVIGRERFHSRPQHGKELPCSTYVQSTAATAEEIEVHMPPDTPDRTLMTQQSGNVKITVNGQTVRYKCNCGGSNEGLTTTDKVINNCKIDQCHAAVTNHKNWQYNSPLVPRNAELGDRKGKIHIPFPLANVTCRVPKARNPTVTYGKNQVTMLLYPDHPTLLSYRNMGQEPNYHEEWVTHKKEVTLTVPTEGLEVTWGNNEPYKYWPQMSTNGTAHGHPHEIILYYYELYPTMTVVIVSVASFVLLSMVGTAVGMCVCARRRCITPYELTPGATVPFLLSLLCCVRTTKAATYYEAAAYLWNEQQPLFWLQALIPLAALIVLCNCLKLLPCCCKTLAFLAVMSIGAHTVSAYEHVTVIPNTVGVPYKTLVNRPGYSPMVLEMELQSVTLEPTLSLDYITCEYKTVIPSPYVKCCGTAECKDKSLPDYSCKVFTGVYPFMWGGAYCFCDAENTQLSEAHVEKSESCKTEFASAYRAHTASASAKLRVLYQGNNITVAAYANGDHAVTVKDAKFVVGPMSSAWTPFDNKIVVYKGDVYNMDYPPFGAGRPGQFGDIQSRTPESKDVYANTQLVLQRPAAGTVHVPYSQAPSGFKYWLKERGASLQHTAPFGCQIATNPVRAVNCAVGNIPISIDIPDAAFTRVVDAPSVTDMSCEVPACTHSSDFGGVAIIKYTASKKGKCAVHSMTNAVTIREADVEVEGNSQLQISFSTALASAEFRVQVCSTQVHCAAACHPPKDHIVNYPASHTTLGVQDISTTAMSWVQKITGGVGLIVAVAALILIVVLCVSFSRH

Binder | binding result
CC3-hop (VHH, also called CC3 with the hop tail; original CC3-hop) VHH: EVQLQASGGGSVQAGGSLRLSCVTSQNLFEYYTMGWYRQVPGSQRERVALINNGGSTVAGSVEGRFTISRDHAKNSVYLQMNYLKPEDSAVYYCRAFGPADYWGQGTQVTVSS | binds
CC3-m6hop (VHH, Theoretical pI 8.75) VHH: QVKLQASGGGSVQAGGSLRLSCVTSQNLFEYYTMGWYRQVPGSQRERVALINNGGSTVAGSVEGRFTISRDHAKNSVYLQMNYLKPEDSAVYYCRAFGPADYWGQGTQVTVSS | binds
CC3-m2hop (VHH, Theoretical pI 6.35) VHH: EVQLVESGGGSVQAGDSLRLSCVTSQNLFEYYTMGWYRQVPGSQRERVALINNGGSTVAGSVEGRFTISRDHAKNSVYLQMNYLQPEDSAVYYCRAFGPADYWGQGTQVTVSS | binds
CC3-m4hop (VHH, Theoretical pI 7.04) VHH: EVQLVESGGGSVQAGGSLRLSCVTSQNLFEYYTMGWYRQVPGSQRERVALINNGGSTVAGSVEGRFTISRDHAKNSVYLQMNYLKPEDSAVYYCRAFGPADYWGQGTQVTVSS | binds
CC3-m7hop (VHH, Theoretical pI 9.0) VHH: QVKLQASGGGSVQAGGSLRLSCVTSQNLFEYYTMGWYRQVPGSQRERVALINNGGSTVAGSVVGRFTISRDHAKNSVYLQMNYLKPEDSAVYYCRAFGPADYWGQGTQVTVSS | binds
CC3-m5hop (VHH, Theoretical pI 8.40) VHH: EVKLQASGGGSVQAGGSLRLSCVTSQNLFEYYTMGWYRQVPGSQRERVALINNGGSTVAGSVEGRFTISRDHAKNSVYLQMNYLKPEDSAVYYCRAFGPADYWGQGTQVTVSS | binds
CC3-m9hop (VHH, Theoretical pI 9.35; also called variant 9) VHH: QVKLQASGGGSVQAGGSLRLSCVTSQNLFEYYTMGWYRQVPGSQRERVALINNGGSTVAGSVKGRFTISRDHAKNSVYLQMNYLKREDSAVYYCRAFGPADYWGQGTQVTVSS | binds
CC3-m3hop (VHH, Theoretical pI 6.63) VHH: EVQLVESGGGSVQAGGSLRLSCVTSQNLFEYYTMGWYRQVPGSQRERVALINNGGSTVAGSVEGRFTISRDHAKNSVYLQMNYLQPEDSAVYYCRAFGPADYWGQGTQVTVSS | binds
CC3-m8hop (VHH, Theoretical pI 9.18; also called variant 8) VHH: QVKLQASGGGSVQAGGSLRLSCVTSQNLFEYYTMGWYRQVPGSQRERVALINNGGSTVAGSVKGRFTISRDHAKNSVYLQMNYLKPEDSAVYYCRAFGPADYWGQGTQVTVSS | binds
